{"source": "patent US5789547", "target": "human insulin-like growth factor-I (IGF-I) (human)"}
{"substance": "human insulin-like growth factor binding protein-3 (IGFBP-3), recombinant, from pDJ12833 (from UniProt P17936)", "values": [{"measurement": "yield of correctly folded (native) protein by RP-HPLC after cofolding, against each protein refolded alone", "result": 99.6, "unit": "%"}]}
